This data set is described as follows: soluble on expression in E. coli; label from the status in PepcDB or PDB records.
As to “MSLSELIDNRAQRVRTLKGIIKRLHAGDAPDEVRNSLKELVCQTDYSEVMAMEQELIADGMPVEEIQGMCDLHSQVTREVLVQLAPAPVPPGHPVDTFRRENKALRESAARLQKAMNGVLETADDGDASARLLEWRQALNELQDVDKHYQRKEHLLSTCLERHGITGPSKVMWGKDDQIRELLKDTSVALRQSDTSVAELKVLAATTGAAAAGAVHEMIYKEEQILLPICLERFTADEWAEIWASSPRYGWCLVEPRQGYKPFTSEAAGRASVDGGVSLPTGALALEQLIAIFSTLPVDLTFVDANDRVAFFSEGPSRVFARSRTIVGRMVQNCHPPRSVDVVERILSDFREGRQNVAEFWLQFVGRFVHIRYFAVRSEDGRYLGTLEVTQDVGPIRALEGERRLLEYAEPSEGHHHHHH”, the “soluble on expression in E. coli” value was “soluble”.

Regarding “MVDLGSDRLPVAVIGAGPVGLAAAAHLAERSVPFVVLEAGDAAATAVQAWSHIQLFSPWEFNTDPAARRLLAAAGWEEPDASALPTGGDLVKQYLQPLAELPALASHIRYGAEVTAISRLGIDRLRTADRDAAPFVLRLADGEEVLARAVIDASGTWRQPNHVGANGLPAHGEKDAAAWINHGLPDVFGADRDQHAGRHTVVVGAGHSAANTLLALAELADTAPGTTITWAIRGADPAASFGGGSDDELPARGAIGSGLKMLVETGRVTLAANFRTHAVRRLGDDPSRDQVELVSRALDGTERSVTADRVVAATGFRPDYRIVDELRLELDPIMSAPRALAPLIDPNQHSCGTVTPHGYRELAHPEPGYYAVGMKSYGRAPTFLMLTGYEQVRSIAAALAGDLEAAQSVELQLPETGVCSVTAGGEALALRLGLTKDQHEQLLHVTAKHLGTSATASDAVLSAATELGIDQTAALQLAAYAADMFDAPGAPGCLEHHHHHH”, the “soluble on expression in E. coli” value is recorded as “not soluble”.

Turning to “MSLTLPELFTSVFSHFKGQPDKAPIARKINGAYSPISYDSLAEDCRHFAAYLKERGIEPGDRVAILSENRPGWYLADIAILSLGATDVPLYPSLPPNQIEYILNNCSAKGIIVSNMLQLGKILSIWPKLPELNMVIVMNKLDEPVEDVIDLSQAKTEGKKVLEAKPWLLDGIKSNPDDVATLIYTSGTTGLPKGVMLTHRNICENVKSCSTVIRIDQTDSSLSFLPLSHAYERTGGYYLMFACGARINLAESVETISLNISEAKPTIIFTVPRLFDRMKASILKSVTSEGGVKEKIFFWAVSTGEKYHKQLATGKVSPLLAVQHNLADKLVYSKIRKKFGGKLRYFVSGGAALPQKTGEFFQSIGITILEGFGLTETSPVTNVNRPEKVKFGTVGLPVKNVEVKIAPDGEIMLKGPNIMKGYWKDEAASAEVLRDGWLYTGDIGEVDSEGYLKITDRKKHIIVTSGGKNIAPLQIENLILDSPYVDQAMIVGEKRPFLIALIVPDFLKLRDFAAEHQIKASSTKELINTKEVIEVYEKLLKSISRQLATHEKVRKFLLLEEPFSIENGMMTPTLKLKRKEITTKFSAEIDNLYNTLNMVYNTEGHHHHHH”, the “soluble on expression in E. coli” value is recorded as “not soluble”.

Take “MSRNDSLISIIVPVYNVEQYLSRCVDSLVNQTYHNIEIILVDDGSPDRSGEICDEYAKKDKRVKVIHQSNGGLSDARNTALDIAKGDYLMFVDSDDWIEKKTCEILNRLASDYKADTVIFGLNFVFDSGKVIRSKRGMAGLTDKNMCMKYLIHNVARGGIFNYACNKMFSSHLFEGLRFPVGRLAEDQDVIYKLIHRSQRIYVTEQPLYNYYQRDGSITAAQYYPRLIRDRHELWLKRLDFIREYYPDLENYQIAQILGAAYVGIVKLEGNKQNGELKKKLICFSNKYILKEKELSVLDRKIKLHYYCYPLFWLYVKLFIK”: the “soluble on expression in E. coli” value was “not soluble”.

For “MGSDKIHHHHHHMKYKIHWLYKTKRGLQTDLTTDYMNIEEVLQFAEDFEKTGRVKELLFYDEMDAEWSLKEMKKLSKQVEDEPQEILVYFDGGYDVQTKEAGVGICVYYKKGNKNYRIRRNAYIEGIYDNNEAEYASLLYSMNILEELGIKYEAVTLRGDSQVVLQQLAGEWPCYDEHLNHYLDQIEQKAKQMKLKLVCEPISRKQNKEAHQLATQALEGTVIDSHKEITE”, the “soluble on expression in E. coli” value is recorded as “not soluble”.

On to “MSLRHDFVFSGVIMLELNAKTTALVVIDLQEGILPFAGGPHTADEVVNRAGKLAAKFRASGQPVFLVRVGWSADYAEALKQPVDAPSPAKVLPENWWQHPAALGATDSDIEIIKRQWGAFYGTDLELQLRRRGIDTIVLCGISTNIGVESTARNAWELGFNLVIAEDACSAASAEQHNNSINHIYPRIARVRSVEEILNALEGGSHHHHHH”, for which the “soluble on expression in E. coli” value was “soluble”.

For “GPLGSPEFISLTSIPSLREQQHPLIRQLADCIEEVWHQHLDLSPYHLPAELGYVEGRLEGEKLTIENRCYQTPQFRKMHLELAKVGNMLDILHCVMFPRPEYDLPMFGCDLVGGRGQISAAIADLSPVHLDRTLPESYNSALTSLNTLNFSQPRELPEWGNIFSDFCIFVRPSSPEEEAMFLGRVREFLQVHCQGAIAASPVSAEQKQQILAGQHNYCSKQQQNDKTRRVLEKAFGVDWAENYMTTVLFDLPE”, the “soluble on expression in E. coli” value was “soluble”.

With “MGSDKIHHHHHHMGNKIYPIGIQNFESLRLDGYFYIDKTALIYQLVKSGRYYFLSRPRRFGKSLLISTLEAYFQGKKELFQGLAMEKLEKDWTKYPILHIDLNTQKYDSPQSLESKLNRTLVTWEKLYGSEPAEDSLSMRFEGTIQRAYEQTGQRVVILVDEYDKPMLQAIGNKELQNSFRETLKAFYGALKSKDGCIKFAMLTGVTKFGKVSVFSDLNNLDDISMWNEYIELCGISEKEIHKNLETELHEFADVQKMTYDSFCEKLRQYYDGYHFTHNSIGMYNPFSLLNAFKRKEFGSYWFETGTPTYLVELLKRHHYNLERMAHEETNAQVLNSIDSESTSPIPVIYQSGYLTIKGYDEEFGIYHLGFPNKEVEEGFIQFLVPYYTSMNNVESPFEI”, the “soluble on expression in E. coli” value is “not soluble”.

Turning to “GPGSMDLLGSQIAAALEEGSRKRKRDVEEGCSALVSHVNSTLDVITTDVRNTLTEQHCEMEERVNRLMKMAGDFATAVDTWQKKASDSVCAVESQQQLLWELLQDVEKRAQERKKEMLKRQEQRMEELRTMLLERIQKAEASMQL”, the “soluble on expression in E. coli” value is listed as “not soluble”.

Take “MRNTKIRAVQYGCGKMSKVILNYLVDHGVEIVGAIDKNPAVVGQDIGDFAGFGHKTGIIISDKADQVFDNCDADIAIVTIFSYMPEMYEFYEMAIKHGVNVISTCEEAIYPWTTSPSETNRLDKLAKENHVTIMGSGMQDIYWINMPCLAMAGMNKIKKVRGVVSYNVEDYGLALAEAHGAGYDLERFERDIASAESLPSYMWNAAEAICSKMNWTIQSINQKSVPYILDEDVYSETLGRTIPAGQVTGMSAVTKVQTHQGIDLEVECIGKVYRQDDGDMCDWEITGEPDLIFSVNKPDTVALTCGTIVNRIPTVLDAPAGYITSEKARLITYPSYPLHTYVEK”: the “soluble on expression in E. coli” value is “not soluble”.

As to “MIFRKFLNFLKPYKMRTDPIIFVIGCTGTGKSDLGVAIAKKYGGEVISVDSMQFYKGLDIATNKITEEESEGIQHHMMSFLNPSESSSYNVHSFREVTLDLIKKIRARSKIPVIVGGTTYYAESVLYENNLIETNTSDDVDSKSRTSSESSSEDTEEGISNQELWDELKKIDEKSALLLHPNNRYRVQRALQIFRETGIRKSELVEKQKSDETVDLGGRLRFDNSLVIFMDATPEVLEERLDGRVDKMIKLGLKNELIEFYNEHAEYINHSKYGVMQCIGLKEFVPWLNLDPSERDTLNGDKLFKQGCDDVKLHTRQYARRQRRWYRSRLLKRSDGDRKMASTKMLDTSDKYRIISDGMDIVDQWMNGIDLFEDISTDTNPILKGSDANILLNCEICNISMTGKDNWQKHIDGKKHKHHAKQKKLAETRT”, the “soluble on expression in E. coli” value is “not soluble”.

Consider “MIKKLDVVAAIIECDGKILLAQRPAHADQAGLWEFAGGKVEPGETQPQALIRELREELGIDATPGVYIASHQRDVSGRRIHLHAWHVPAFNGLIRALEHQALAWCTPEEALEYPLAPADIPLLQAFIALRDARLTDSC”, for which the “soluble on expression in E. coli” value is on record as “not soluble”.

“MSLYIHQTACISAQPAFADPASDHVAAAVDNKLYAIDSNYDSIPPNVLRRLGKAVKMGIATGHSLISKHPVDGIVLGTANGGLEDCIKFLNQIIEFEEGRLTPTNFVQSTTNAIAGQLGIMSSNKGYNITHVHRGLAFENALIDIEMLLNEYPSNTYLLGGVDEISAYNYTIEKLAGTYKSETISSAQLFSSQTTGTIAGEGAAMFLVNTNRLNAAAAIKGIKTYNNPSPEAIKKHLEDFLAKHLPQNEKIDVLFSGKNGDVCLNSFYEVCAQQLGKETTVCYYKQLTGDFPTVTALALWFATRFIEDSNNLPVLNIKKTGAVKNILLYNTYKGYQHSFILVSEGHHHHHH”: the “soluble on expression in E. coli” value is on record as “not soluble”.

Turning to “MGSSHHHHHHSSGLVPRGSHMPLYYRSIIEEHMAVRKHVGIFDVSHMGDVTVSGKDASAFLDHMFPTKVSNLKNGECVYTAFLNDSGLMIDDTIVYRMGEDSYFFVPNAGTTEKIYRWVSDHSAGYSVKIENVSNRISSIALQGPESEEVLNELGFSYPGYFKFQYVSGKYMNAITGKDQIIISGTGYTGEKGVEFIIPNEHAVELWKKLLEAINKRNGLPAGLGARDTLRMEKGMLLSGHDFNEDRDPYEASVSFIVNNDEDFVGKKNLEIRRRSDHEIFRGFVLSDGIPRNGNPIKAGGKRVGTVTSGTISPVLNKGIALGYIDKAYSKENTEVMIEIRSVDHKAVVTKPRIVK”, the “soluble on expression in E. coli” value is “soluble”.

As for “MVSIELRDIIKRFGEFELKVSLSVKDGELLTLLGPSGCGKTTTLRIIAGLEKPDKGRVYFDGRDITDLPPYERNIGLVFQDYALFPHMTVFKNVAFGLEVRRVPRMEIEKRVREVLDLVGLRGFENRLPEELSGGQQQRVALARALVIEPDVLLLDEPLSNLDAKVREKLRGEIKRIVKELGITTIYVTHDQEEAMVLSDRIAVMNFGRIEQVGEPYDLYYNPKNEFVANFLGISNIVELEAKEGRACLGDLCFEVGREGKGKIFFRPENVAVGEGIEAEVIGYELLPGRVRLRLSIEGREIIAEELLSRIGKKIPKKVRIRVREFKILP”, the “soluble on expression in E. coli” value is reported as “soluble”.

As to “GPGSMGADIVEVDVWRTSDGALILMHDETLDRTTNGTGRVCDHTLAEVRALRLKDGLGNMTEFTVPTVEEVLLLAKDRAILNLDKADVYLDELYPLLVKTGMVEQTILKSEIPFDELCKRYSADLLNRVIFMPILNITDTTTYKNIDRAFAANHALYEVNFEKENADVLQYIRKLAKNSGAALWINTIWPTTCGGYSDDHALRDKDANWGYVVDRIGAGIIQTDRPAMLLAYLQERGCR”, the “soluble on expression in E. coli” value is “not soluble”.

Take “MNQWDQFLTPYKQAVDELKVKLKGMRKQYEVGEQASPIEFVTGRVKPIASIIDKANKRQIPFDRLREEMYDIAGLRMMCQFVEDIDVVVNILRQRKDFKVIEERDYIRNTKESGYRSYHVIIEYPIETLQGQKFILAEIQIRTLAMNFWATIEHTLRYKYDGAYPDEIQHRLERAAEAAYLLDEEMSEIKDEIQEAQKYYTQKRSKKHEND”: the “soluble on expression in E. coli” value is listed as “not soluble”.

As to “MNTTANPSNIIVGLSGGVDSSVTAALLKQQGYQVRGVFMQNWEDDDNDEYCSIKQDSFDAIAVADIIGIDIDIVNFAAQYKDKVFAYFLQEYSAGRTPNPDVLCNAEIKFKCFLDYAVGQGADTIATGHYARKEVRNGVHYLLKGLDRNKDQSYFLYRLKPFQLERAIFPLGGLEKPEVRRLAAEFKLPTAAKKDSTGICFIGERPFREFLQKYLPTDNGKMVTPEGKTVGEHVGLMFYTLGQRKGLGIGGAGEPWFVAAKDLTKNELIVVQGHDHPLLYTRSLVMNDLSFTLPERPKAGRYTCKTRYRMADAPCELRYLDDETAELVFDEPQWAVTPGQSAVLYDGDICLGGGIIQTTDKPVIITR”, the “soluble on expression in E. coli” value is “not soluble”.

The values are drawn from the DeepSol protein solubility set.
